Reference: patent publication US20250188193A1

Columns and labels:
[1] = target: soluble human FcγRIIb ectodomain (human) (UniProt P31994); test: SPR (Biacore T200), mAb on Protein G chip, soluble FcγR ectodomain as analyte
[2] = target: soluble human FcγRIIIa ectodomain (human) (UniProt P08637); test: as above
[3] = target: soluble human FcγRIIa ectodomain (human) (UniProt P12318); test: as above
[4] = target: Rituximab G2F (galactosylated fucosylated glycoform); test: SPR, 256 to 8 nM
[5] = target: Rituximab G2 (galactosylated afucosylated glycoform); test: SPR, 256 to 8 nM

soluble human FcγRIIb ectodomain (human), sequence (P31994 43-217): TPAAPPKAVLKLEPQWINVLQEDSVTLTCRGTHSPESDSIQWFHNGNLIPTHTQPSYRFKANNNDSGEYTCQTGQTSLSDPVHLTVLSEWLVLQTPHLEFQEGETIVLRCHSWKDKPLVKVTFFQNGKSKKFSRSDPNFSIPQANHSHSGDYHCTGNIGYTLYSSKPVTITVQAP
tetrameric FcγRIIIA, sequence (P08637 17-208 limits assumed): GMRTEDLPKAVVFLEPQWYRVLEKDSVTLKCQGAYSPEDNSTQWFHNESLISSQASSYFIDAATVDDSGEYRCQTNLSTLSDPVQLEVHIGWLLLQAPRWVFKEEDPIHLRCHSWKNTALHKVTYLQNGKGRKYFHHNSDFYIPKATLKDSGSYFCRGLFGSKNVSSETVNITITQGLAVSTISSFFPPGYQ

| Substance | Kd [1] [nM] | Fold (affinity relative to Wild-type) [2] [fold] | Kd [2] [nM] | Fold (affinity relative to Wild-type) [3] [fold] | Kd [3] [nM] | Fold (affinity relative to Wild-type) [1] [fold] | KD1 [4] [nM] | KD2 [4] [nM] | KD1 [5] [nM] | KD2 [5] [nM] |
| --- | --- | --- | --- | --- | --- | --- | --- | --- | --- | --- |
| human IgG1 Fc variant: Wild-type (antibody) | 3110 | 1 | 740 | 1 | 1030 | – | – | – | – | – |
| human IgG1 Fc variant: Afucosylated (antibody) | 2220 | – | – | – | 747 | – | – | – | – | – |
| human IgG1 Fc variant: GAALIE (antibody) | 4150 | – | 218 | 2.7 | 387 | 0.8 | – | – | – | – |
| tetrameric FcγRIIIA (from UniProt P08637 17-208) (receptor) | – | – | – | – | – | – | 55.2 | 2.29 | 29.9 | 2.3 |
| human IgG1 Fc variant: ALIE (antibody) | 3920 | – | 169 | 0.5 | 2070 | 0.8 | – | – | – | – |
| human IgG1 Fc variant printed 'GAALIE' in the second such row of Table 9 (r13) (antibody) | 2890 | 0.8 | 903 | 5.5 | 186 | 1.1 | – | – | – | – |
